2 molecules from patent publication US20250376498A1, “FUSION PROTEINS COMPRISING AN IMPROVED GLP-1 RECEPTOR AGONIST AND USES THEREOF” (Guangzhou Innogen Pharmaceutical Group Co., Ltd., priority 2022, published 2025) can be followed below.

Entries after “also recorded” stand apart in the source; their conditions may differ.

One data set concerns SH-SY5Y neuronal cells. Nature of the data set: TNF-α-induced damage in SH-SY5Y cells (Hoechst 33342 live cell staining). The settings on record: 60 ng/ml TNF-α, 48 hours; YN-011 10, 100, 500 nM; GABA 1, 10, 100 μM; combination 100 μM GABA + 100 nM YN-011. It counts as cell-based. On the procedure: Digest the SH-SY5Y neuronal cells in a 10 cm culture dish using 0.25% trypsin to prepare a single-cell suspension. Seed the single-cell suspension into a 24-well plate. Place the culture plate in a CO2 incubator and pre-culture overnight at 37° C. with 5% CO2 to allow the cells to adhere. Treat the cells in each well with 20, 40, 60, or 80 ng/ml TNF-α using medium containing 5% FBS at 37° C. for 48 hours. Each drug treatment is performed in three replicate wells. Add the fluorescent dye Hoechst 33342 (Beyotime) at a dilution of 1:1000 to the wells, and incubate the plate at 37° C. for 10 minutes. Remove the culture medium, gently wash twice with PBS, and immediately take the plate to a fluorescence microscope for imaging (20× magnification). Capture 10 fields of view for each cell well and count the number of blue-stained positive cells in each field of view.
Please refer to section 8.7 for the experimental procedure, but the drug treatment in this experiment is different from that in section 8.7. In this experiment, the drug treatment is as follows: using medium containing 5% FBS, treat the cells in each well with 60 ng/ml TNF-α alone or co-treated with 10, 100, or 500 nM YN-011 at 37° C. for 48 hours. Each drug treatment is performed in three replicate wells. […]

Data set [1] relates to INS-1 cells. Nature of the data set: Assessment of YN-011 activity by inducing cAMP levels in INS-1 cells. The format is cell-based. The settings on record: YN-011 120 nM. On the procedure:
(§1) Natural GLP-1 stimulates insulin secretion from beta cells in a glucose-dependent manner. […] INS-1 cells were serum-starved and glucose-starved, then treated with different amounts of purified YN-011 in the presence of 0, 5, or 20 mM glucose as indicated.
Furthermore, the blank control (SF1) and the two samples with the […] hydroxylation levels (SF4 and SF5) were tested for the biological activity of YN-011 using the method described in Example 1. […] Thus, higher hydroxylation levels tend to increase the biological activity.

In data set [2] the test system is INS-1 cells. Nature of the data set: Insulin secretion from INS-1 cells. The format is cell-based. On the procedure: as §1
A further data set relates to db/db mice. Nature of the data set: Multiple subcutaneous injections in db/db mice (type 2 diabetes model). It counts as in vivo. Conditions: for rate of fasting blood glucose reduction: 54 hours (day 21) after the 7th administration; for average rate of decline in random blood glucose levels: 72 hours after the 7th administration; for average rate of fasting blood glucose reduction: average over measurement time points. The procedure:
The impact of multiple subcutaneous injections of YN-011 on reducing blood glucose levels was evaluated in db/db mice (Jackson Laboratories, 000642). The mice were kept under normal lighting conditions (12 hours light/12 hours dark) and at room temperature, with free access to food (normal rodent chow) and water. Db/db mice lack leptin receptors and spontaneously develop obesity, hyperglycemia, and pancreatic B-cell atrophy by 4 weeks of age.
Sixty affected db/db mice (33-45g) were divided into six groups of 10 mice each (5 males and 5 females) and administered 0 (PBS buffer control), 0.15, 0.3, 0.6, or 1.2 mg/kg of YN-011, or 0.3 mg/kg of Degludec via subcutaneous injection. Another group of wild-type mice (17-22g) with the same genetic background served as the normal control. The administration frequency was once every 3 days (Q3D), with a total of 9 doses administered over a period of 26 days. […] The duration of the hypoglycemic effect ranged from 34 to 72 hours within the dose range of 0.15-1.2 mg/kg.

A further data set concerns NASH Rhesus monkeys. Nature of the data set: NASH Rhesus monkeys, body weight, lipids, glucose, food consumption, tolerability. The format is in vivo. On the procedure:
The in vivo pharmacological study of YN-011 was conducted in NASH Rhesus monkeys. The evaluated clinical parameters included liver lipid content assessed by MRI-PDFF %, NAFLD Activity Score (NAS), liver fibrosis stage assessed by liver histology, body weight, body mass index (BMI), blood lipid profile, fructose metabolism, other biochemical parameters, and food consumption.
The selected Rhesus monkeys were 11-23 years old, which corresponds to 30-70 years in humans. All Rhesus monkeys were males, with weights ranging from 13.63 to 22.85 kg. They had abnormal lipid metabolism for more than 2 years, MRI-PDFF % ranging from 7.8% to 11.9%, NAS scores of 3 or higher, and fibrosis scores of 0-1c within 6 months. These animals clinically met the definition of NASH.
Fifteen Rhesus monkeys were divided into 3 groups, with 5 monkeys in each group. They received subcutaneous injections of 0 (solvent control, placebo control group), 0.050, or 0.150 mg/kg of YN-011 once a week for 13 weeks (QW). The 0.150 mg/kg YN-011 group received adaptive dosing (0.1 mg/kg for the first dose, followed by 0.150 mg/kg for the remaining 12 doses).

Where [3] appears, read: db/db mice, after the last administration (9th dose, day 26).

As for `NCCCC(=O)O` [GABA, γ-aminobutyric acid], the “TNF-α-induced damage in neuronal cells (Hoechst 33342 positive cells)” value in the data set with SH-SY5Y neuronal cells was “protective effect”.

B1: YN-011: GLP-1 fusion protein of SEQ ID NO: 7: GLP-1 (A8G, G22E, R36G), linker peptide and IgG2/Fc domain (C222S, A330S, P331S) (protein)
chain: HGEGTFTSDVSSYLEEQAAKEFIAWLVKGGGSSGAPPPSGGGGSERKSCVECPPCPAPPVAGPSVFLFPPKPKDTLMISRTPEVTCVVVDVSHEDPEVQFNWYVDGVEVHNAKTKPREEQFNSTFRVVSVLTVVHQDWLNGKEYKCKVSNKGLPSSIEKTISKTKGQPREPQVYTLPPSREEMTKNQVSLTCLVKGFYPSDIAVEWESNGQPENNYKTTPPMLDSDGSFFLYSKLTVDKSRWQQGNVFSCSVMHEALHNHYTQKSLSLSPG
As for B1, the cAMP levels entry is “significantly increased” in the data set on INS-1 cells [1] (5 mM glucose, comparable to exendin-4) and “maintained basal levels of cAMP” in the data set with INS-1 cells [1] (absence of glucose). The “TNF-α-induced damage in neuronal cells (Hoechst 33342 positive cells)” value in the data set on SH-SY5Y neuronal cells was “protective effect”. Besides, the “insulin secretion from beta cells” value in the data set on INS-1 cells [2] (absence of glucose) is given as “did not stimulate insulin secretion”; in the data set with INS-1 cells [2] (presence of 5 mM or 20 mM glucose), “dose-dependently stimulated insulin secretion”. Further, the “rate of fasting blood glucose reduction” value in the data set with db/db mice (db/db mice, 0.15 mg/kg Q3D sc) turned out to be 46.8%; with db/db mice (db/db mice, 0.3 mg/kg Q3D sc), 55.6%; in the data set on db/db mice (db/db mice, 0.6 mg/kg Q3D sc), 59.5%; in the data set on db/db mice (db/db mice, 1.2 mg/kg Q3D sc) it was 64.7%. The “average rate of decline in random blood glucose levels” value in the data set with db/db mice (db/db mice, 0.15 mg/kg Q3D sc) turned out to be 31.8%; in the data set on db/db mice (db/db mice, 0.3 mg/kg Q3D sc), 46.2%; in the data set with db/db mice (db/db mice, 0.6 mg/kg Q3D sc), 50.8%; in the data set with db/db mice (db/db mice, 1.2 mg/kg Q3D sc) it was 54.3%. The “average rate of fasting blood glucose reduction” value was 55.0% in the data set with db/db mice (db/db mice, 0.15 mg/kg Q3D sc); 61.8% in the data set on db/db mice (db/db mice, 0.3 mg/kg Q3D sc); 63.7% with db/db mice (db/db mice, 0.6 mg/kg Q3D sc); 66.1% with db/db mice (db/db mice, 1.2 mg/kg Q3D sc). In the data set on db/db mice (db/db mice, 0.6 mg/kg), the “serum free fatty acid levels” value is “significantly reduced”. The perirenal fat content entry in the data set on db/db mice (db/db mice, 1.2 mg/kg) is given as “significantly reduced”. Also, the serum fructosamine levels entry in the data set with db/db mice (db/db mice, 1.2 mg/kg sc) is reported as “significant reduction”; with db/db mice (db/db mice, 0.15-0.6 mg/kg sc), “decreasing trend”. Besides, in the data set on db/db mice (db/db mice, 0.15, 0.3, 0.6 and 1.2 mg/kg every 3 days), the “time the hypoglycemic effect (fasting blood glucose) can be maintained” value is “at least 54 hours”. In the data set on db/db mice (db/db mice, 0.15, 0.3 and 0.6 mg/kg), the scapular fat content entry is given as “significantly reduced”. The “subcutaneous fat content, inguinal fat content and their ratios to body weight” value in the data set with db/db mice (db/db mice, 0.3, 0.6 and 1.2 mg/kg) is given as “significantly reduced”. In addition, the “random and fasting body weights” value in the data set on db/db mice (db/db mice, 0.3, 0.6 and 1.2 mg/kg (P<0.05, P<0.01, P<0.001)) is given as “significant decreases”. In the data set with db/db mice (db/db mice, 3 hours after administration), the “insulin secretion (serum insulin levels)” value is reported as “significantly promoted insulin secretion”. In addition, the “fasting blood glucose levels versus model control group” value with db/db mice (db/db mice, Q3D sc, YN-011 all dose groups (P<0.001), Degludec 0.3 mg/kg) was “significant decrease; also recorded: significantly reduced fasting blood glucose levels”. The “epididymal fat content and its ratio to body weight” value with db/db mice (db/db mice, YN-011 treatment groups vs solvent control) is “significant decrease”. Besides, in the data set on db/db mice (db/db mice, after repeated administration), the “time the hypoglycemic effect was sustained” value stood at 72 h. In the data set on db/db mice (setting [3]), the “fasting serum insulin levels” value is “dose-dependently increased”. Moreover, in the data set with db/db mice (setting [3]), the pancreatic-cell mass result is reported as “significant increase”. In the data set with db/db mice (db/db mice, first administration, dose as low as 0.15 mg/kg), the “time after administration at which therapeutic effect was observed” value came out at 3 h. Further, the “random plasma glucose (RPG) concentration” value in the data set on db/db mice (db/db mice, following the first subcutaneous administration, 0.15-1.2 mg/kg) is on record as “significantly reduced”. For the same molecule, the serum triglyceride levels entry in the data set on db/db mice (db/db mice, multiple sc injections vs solvent control) is reported as “significantly decreased”. In the data set on db/db mice (db/db mice, repeated administration, all dose groups and time points except 0.15 mg/kg after the 4th administration (P=0.07)), the “RPG levels versus control group” value was “significantly lower”. The food consumption result in the data set with NASH Rhesus monkeys is “dose-dependent reduction”. The “high-density lipoprotein cholesterol (HDL-c) compared to baseline” value in the data set on NASH Rhesus monkeys is “decreasing trend”. Moreover, the “plasma fasting plasma glucose (FPG) levels, YN-011 vs placebo” value in the data set with NASH Rhesus monkeys is “no significant differences”. For the same molecule, the “reduction of plasma fructosamine (FRA)” value in the data set with NASH Rhesus monkeys (150 μg/kg, after 12 weeks of treatment) was 4.3%. For the same molecule, the adverse reactions entry in the data set with NASH Rhesus monkeys (0.050 or 0.150 mg/kg sc QW, 13 weeks) was “No significant adverse reactions”. Besides, the “body weight and BMI compared to baseline” value with NASH Rhesus monkeys (Day 7-Day 84) is listed as “significant decrease”. Besides, the “serum LDL-c, total cholesterol (TC) and total triglycerides (TG)” value in the data set with NASH Rhesus monkeys (various time points during treatment) is recorded as “significantly reduced”.
